Source: patent publication US20240010747A1, “ANTI-MRP4 (ENCODED BY ABCC4 GENE) ANTIBODIES AND USES THEREOF” (Kenjockety Biotechnology, Inc., priority 2020, published 2024)

T1: cynomolgus ABCC4 (cynomolgus, UniProt A0A2K5W0Z4 1-1325)
T1 construct: whole, on cells; Expressed on murine C6 cells stably transfected with cynomolgus ABCC4 cDNA with C-terminal FLAG tag; not shown: C-terminal fused FLAG tag
T1 sequence: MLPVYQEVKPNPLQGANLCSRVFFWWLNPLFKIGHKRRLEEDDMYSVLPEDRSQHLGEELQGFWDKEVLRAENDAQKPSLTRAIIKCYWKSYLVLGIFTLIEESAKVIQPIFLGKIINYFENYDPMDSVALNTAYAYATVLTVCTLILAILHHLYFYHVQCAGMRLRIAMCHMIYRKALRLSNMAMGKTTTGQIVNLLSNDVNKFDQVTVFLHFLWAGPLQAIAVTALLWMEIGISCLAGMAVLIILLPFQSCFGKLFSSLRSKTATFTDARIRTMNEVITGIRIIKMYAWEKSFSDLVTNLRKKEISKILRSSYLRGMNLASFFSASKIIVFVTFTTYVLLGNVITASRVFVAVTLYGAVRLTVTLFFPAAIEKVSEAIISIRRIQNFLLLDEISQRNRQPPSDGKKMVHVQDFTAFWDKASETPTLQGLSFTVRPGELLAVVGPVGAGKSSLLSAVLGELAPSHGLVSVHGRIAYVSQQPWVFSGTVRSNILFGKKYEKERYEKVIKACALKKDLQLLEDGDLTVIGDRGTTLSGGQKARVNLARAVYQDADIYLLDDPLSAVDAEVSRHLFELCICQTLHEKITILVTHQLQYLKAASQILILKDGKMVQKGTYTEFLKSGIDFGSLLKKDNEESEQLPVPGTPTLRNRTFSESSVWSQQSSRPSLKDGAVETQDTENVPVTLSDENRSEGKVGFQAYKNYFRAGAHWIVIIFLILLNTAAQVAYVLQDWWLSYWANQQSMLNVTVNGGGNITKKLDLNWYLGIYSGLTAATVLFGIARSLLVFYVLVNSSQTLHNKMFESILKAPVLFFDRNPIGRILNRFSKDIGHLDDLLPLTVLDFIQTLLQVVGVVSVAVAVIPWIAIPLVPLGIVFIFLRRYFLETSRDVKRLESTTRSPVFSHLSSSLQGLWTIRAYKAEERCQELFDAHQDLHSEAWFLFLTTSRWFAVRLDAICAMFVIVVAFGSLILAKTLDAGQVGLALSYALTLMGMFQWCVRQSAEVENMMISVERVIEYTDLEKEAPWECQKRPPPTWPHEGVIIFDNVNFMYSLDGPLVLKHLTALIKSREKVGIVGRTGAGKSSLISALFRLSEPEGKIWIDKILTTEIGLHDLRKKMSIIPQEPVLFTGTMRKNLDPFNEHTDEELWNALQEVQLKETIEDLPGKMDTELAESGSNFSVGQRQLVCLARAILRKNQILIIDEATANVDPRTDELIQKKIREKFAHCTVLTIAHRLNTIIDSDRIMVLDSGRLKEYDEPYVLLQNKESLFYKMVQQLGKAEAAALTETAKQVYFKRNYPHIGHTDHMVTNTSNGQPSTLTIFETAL

B1: C4.1148 (antibody, V domains shown)
VH: EVQLVESDGGLVQPGRSLKLSCAASGFTFSDYYMAWVRQAPPKGLEWVATISYDAFTTYYRDSVKGRFTISRDNAKTILFLQMDSLRSEDTATYYCIRLSTRYKGVMDAWGHGASVTVSS
VL: DIQMTQSPSNLAASPGESVSINCKASETIYKYLAWYQQKPGRTNKLLIYSGSTLQSGTPSRFSGSGSGTDFTLTIRNLEPEDFGRYYCQHHVEYPPTFGAGTKLELK
B2: C4.1139 (antibody, V domains shown)
VH: EVQLVESDGGLVQPGRSLKLSCAASGFTFSDYYMAWVRQAPTKGLYWVASISYDGSTTYYRDSVKGRFTISRDNAKSTLYLQMGSLRSEDTATYYCARLSIRYKGVMDAWGRGASVTVSS
VL: DVVMTQSPSNLAASPGESVSINCKASKSIGKFLAWYQQKPGRPNKLLIYSGSTLQSGTPSRFSGSGSGTDFTLTIRNLEPGDFGLYYCQHHIEYPPTFGPGTKLELK
B3: C4.1059 (antibody, V domains shown)
VH: QVQLLQSGAALVKPGASVKMSCKPSGYTFTDYWVSWVKQSHGKSLEWIGEIYPNNGATNFNEKFKGKATLTVDKSTSTAYMELSRLTSEDSAIYYCPSRKYGYNWNFDYWGQGTMVTVSS
VL: DIVLTQSPALAVSLGQRATISCWASQSVSISRYNLMHWYQQKPGQQPKLLIYRASNLASGIPARFSGSGSGTDFTLTINPVQADDIATYYCQQSGESPWTFGGGTKLELK

biological target: T1, cynomolgus ABCC4; assay: FACS, different C6.cC4 cell line stably expressing cynomolgus ABCC4
Description: Antibody binding to cells was evaluated by flow cytometry. Murine C6 cells stably transfected to express human or cynomolgus ABCC4 were washed once in flow cytometry buffer (PBS+2% FBS+0.02% sodium azide), resuspended at 2×10\hat{ }6 cells/mL in flow cytometry buffer, and dispensed into 96-well microtiter plates at 0.1 mL/well. Recombinant antibodies were added to cells at 5 ug/mL for initial binding confirmation, or serially diluted from 100 ug/mL in flow cytometry buffer. After incubating cells on ice for 30 min, cells were washed twice with flow cytometry buffer. Bound antibody was detected with PE-labeled F(ab′)₂ fragment goat anti-human IgG (Jackson ImmunoResearch) and evaluated on an Attune N×T flow cytometer. EC50 is calculated to be the concentration of antibody that gives half maximal response.

| Binder | binding result |
| --- | --- |
| B1 | no binding (tested: Rmax (MFI) below background level) |
| B2 | no binding (tested: Rmax (MFI) below background level) |
| B3 | no binding (tested: Rmax (MFI) below background level) |
